Biological target: the molecule itself
Assay: thioflavin T fluorescence of fibril formation

B1: PrP^23 (residues 23-231 of human PrP) (natural protein)
chain: not shown
notes: also called full-length WT PrP
Q: Does B1 bind?
A: binds

Source: article doi:10.1101/2022.09.20.508729, “Loss of the first β-strand of human prion protein generates an aggregation-competent partially “open” form” (bioRxiv, 2022)
